Measurements as given in patent US20150164984A1, “Colicins for Treating Bacterial Infections” (The University Court of the University of Glasgow, priority 2012, published 2015).

Assays:
[1] = tested on: intracellular E. coli LF82 in infected murine macrophages (J774); test: macrophage model of AIEC infection, colony counts of intracellular bacteria; type: cell-based; settings: for killing of intracellular LF82 in infected macrophages: infected macrophages treated for 4 and 24 hours, FIG. 4
Procedure: AI E. coli are able to infect and replicate within macrophages and epithelial cells. To determine if colicin E1 is able to kill intracellular bacteria raw murine macrophages (J774) were infected with AI E. coli LF82 and treated with colicin E1 (FIG. 3).
Raw murine macrophages (J774) were grown in 24-well tissue culture plates in RPMI tissue culture media (containing 3% fetal calf serum, 1% […], 1% pen/strep) at 37° C. in 5% CO2 until the cells reached 70-80% confluency. The macrophages were then infected with E. coli LF82 at a multiplicity of infection of 50 (MOI 50). After 2 h of infection, the macrophages were exposed to the antibiotic gentamicin (100 μg/ml) to kill any bacteria outside the macrophage which hadn't successfully invaded the cell. The LF82-infected macrophages were then treated with colicin E1 (10, 0.1, 0.001 μg/ml) for 3 h at 37° C. The macrophages were then scraped from the surface of the plate, lysed with Triton X and the intra-cellular bacteria were plated on LB agar containing 50 μg/ml ampicillin for selection of LF82. The plates were incubated overnight at 37° C. and colony counts were performed.
Experiments were performed as described for colicin E1 except that infected macrophages were treated with colicin for 4 and 24 hours.

[2] = tested on: adherent invasive E. coli isolates (AIEC) 95, 419, 615 and LF82; test: spot test of purified colicin on a growing lawn of cells (zones of inhibition); type: cell-based; settings: isolates 95, 419, 615 and LF82; 2 μl drop of 0.2 mg/ml colicin, 18 h
Procedure: Briefly, 25 μl of a log phase bacterial culture (OD600=0.6) was added to 5 ml of molten 0.8% agarose and poured on top of an LB agar plate. A 2 μl drop of each colicin (0.2 mg/ml) was spotted onto the overlay plate. The plates were incubated for 18 h and examined for zones of inhibition. All E. coli isolates tested were sensitive to the cytotoxic activity of the four colicin proteins, as indicated by the presence of clear zones representing cell killing (not shown).

[3] = tested on: AIEC in the biofilm state; test: MBEC biofilm assay, viability by XTT; type: cell-based, E. coli; settings: for ability to kill AIEC in the biofilm state: 6 additional strains of AIEC; for antimicrobial activity against biofilm-associated cells compared with ampicillin, metronidazole and rifaximin: all isolates; for relative effectiveness among colicins in killing AIEC in the biofilm state: multiple AIEC strains
Text: The clinically relevant state for AI E. coli in the infected gut mucosa is the biofilm state in which bacteria show enhanced tolerance to antibiotics. We therefore tested the ability of colicins to kill AI E. coli in the biofilm state using the MBEC Physiology and Genetics Assay (Innovotech). In this assay, biofilm growth occurs on 96 identical pegs protruding from the lid of a 96-well microtitre plate.
To determine the cytotoxicity of colicins against LF82 biofilms we compared the % cell survival of AIEC in biofilms treated with colicins with those exposed to antibiotics which are frequently prescribed in the treatment of Crohn's disease (FIG. 1). Biofilms were formed on the MBEC™ 96-peg plate platform for 24 h, then challenged for 1 h with 150 μl dilutions of the antibiotics (ampicillin, ciprofloxacin, metronidazole and rifaximin) and colicins (E1, E3, E9 and D) in sterile PBS in the concentration range 0.002 μg/ml-200 μg/ml. All dilutions of antimicrobials were done in triplicate and control antimicrobial-free biofilms were treated with 150 μl of sterile PBS. Following treatment, the viability of biofilm-associated cells was tested using the metabolic dye XTT. The XTT salt changes colour when it is metabolised by viable cells. This colour change can be compared to untreated antimicrobial-free biofilms, giving an indication of the percentage survival in biofilms exposed to the antimicrobials.
We further tested the ability of colicins E1 (a pore-forming colicin) E3 (a rRNase), E9 (a DNase), D (a tRNase) and IA (a pore-forming colicin) to kill 6 additional strains of AIEC in the biofilm state.

[4] = biological target: outer membrane receptor BtuB (Escherichia coli, UniProt P06129); settings: read-out: affinity for outer membrane receptor BtuB; Housden et al., 2005; cited from earlier work
outer membrane receptor BtuB, sequence (P06129 21-614): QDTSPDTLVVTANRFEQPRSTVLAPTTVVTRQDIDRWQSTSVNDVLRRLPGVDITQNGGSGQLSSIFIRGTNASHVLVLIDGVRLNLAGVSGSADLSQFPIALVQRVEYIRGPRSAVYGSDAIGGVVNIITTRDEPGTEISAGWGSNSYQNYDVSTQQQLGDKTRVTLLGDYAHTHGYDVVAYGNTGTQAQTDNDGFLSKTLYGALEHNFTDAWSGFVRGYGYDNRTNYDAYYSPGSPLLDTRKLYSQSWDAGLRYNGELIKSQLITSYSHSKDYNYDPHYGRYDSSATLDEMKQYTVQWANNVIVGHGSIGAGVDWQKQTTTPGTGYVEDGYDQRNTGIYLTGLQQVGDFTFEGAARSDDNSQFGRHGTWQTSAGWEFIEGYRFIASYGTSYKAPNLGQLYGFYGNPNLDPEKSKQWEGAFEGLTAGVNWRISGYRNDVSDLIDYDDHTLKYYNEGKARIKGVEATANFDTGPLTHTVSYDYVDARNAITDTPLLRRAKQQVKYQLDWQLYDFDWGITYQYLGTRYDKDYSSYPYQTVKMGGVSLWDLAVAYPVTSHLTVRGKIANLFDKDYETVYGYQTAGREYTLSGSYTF

B1: Colicin E1 (protein, listed as Escherichia coli)
chain: METAVAYYKDGVPYDDKGQVIITLLNGTPDGSGSGGGGGKGGSKSESSAAIHATAKWSTAQLKKTQAEQAARAKAAAEAQAKAKANRDALTQRLKDIVNEALRHNASRTPSATELAHANNAAMQAEDERLRLAKAEEKARKEAEAAEKAFQEAEQRRKEIEREKAETERQLKLAEAEEKRLAALSEEAKAVEIAQKKLSAAQSEVVKMDGEIKTLNSRLSSSIHARDAEMKTLAGKRNELAQASAKYKELDELVKKLSPRANDPLQNRPFFEATRRRVGAGKIREEKQKQVTASETRINRINADITQIQKAISQVSNNRNAGIARVHEAEENLKKAQNNLLNSQIKDAVDATVSFYQTLTEKYGEKYSKMAQELADKSKGKKIGNVNEALAAFEKYKDVLNKKFSKADRDAIFNALASVKYDDWAKHLDQFAKYLKITGHVSFGYDVVSDILKIKDTGDWKPLFLTLEKKAADAGVSYVVALLFSLLAGTTLGIWGIAIVTGILCSYIDKNKLNTINEVLGI
- reduction in the number of bacteria recovered from the macrophages ([1]; 10 μg/ml, 3 h, LF82-infected J774 macrophages): ~80%
- sensitivity of AIEC isolates in spot tests [2]: sensitive
- ability to kill AIEC in the biofilm state [3]: good killing activity
- antimicrobial activity against biofilm-associated cells compared with ampicillin, metronidazole and rifaximin [3]: superior antimicrobial activity
- relative effectiveness among colicins in killing AIEC in the biofilm state [3]: most effective

B2: Colicin E9 (protein, listed as Escherichia coli)
chain: MSGGDGRGHNTGAHSTSGNINGGPTGIGVSGGASDGSGWSSENNPWGGGSGSGIHWGGGSGRGNGGGNGNSGGGSGTGGNLSAVAAPVAFGFPALSTPGAGGLAVSISASELSAAIAGIIAKLKKVNLKFTPFGVVLSSLIPSEIAKDDPNMMSKIVTSLPADDITESPVSSLPLDKATVNVNVRVVDDVKDERQNISVVSGVPMSVPVVDAKPTERPGVFTASIPGAPVLNISVNDSTPAVQTLSPGVTNNTDKDVRPAGFTQGGNTRDAVIRFPKDSGHNAVYVSVSDVLSPDQVKQRQDEENRRQQEWDATHPVEAAERNYERARAELNQANEDVARNQERQAKAVQVYNSRKSELDAANKTLADAIAEIKQFNRFAHDPMAGGHRMWQMAGLKAQRAQTDVNNKQAAFDAAAKEKSDADAALSAAQERRKQKENKEKDAKDKLDKESKRNKPGKATGKGKPVGDKWLDDAGKDSGAPIPDRIADKLRDKEFKSFDDFRKAVWEEVSKDPELSKNLNPSNKSSVSKGYSPFTPKNQQVGGRKVYELHHDKPISQGGEVYDMDNIRVTTPKRHIDIHRGK
- killing of intracellular LF82 in infected macrophages [1]: able to kill intracellular LF82
- Kd [4]: 2 nM
- sensitivity of AIEC isolates in spot tests [2]: sensitive
- ability to kill AIEC in the biofilm state [3]: good killing activity
- antimicrobial activity against biofilm-associated cells compared with ampicillin, metronidazole and rifaximin [3]: superior antimicrobial activity
- relative effectiveness among colicins in killing AIEC in the biofilm state [3]: most effective

B3: colicin E9 H575A: catalytically inactive colicin E9 variant (protein, UniProt P09883 1-582, looked up, variant H575A)
Colicin-E9: MSGGDGRGHNTGAHSTSGNINGGPTGIGVSGGASDGSGWSSENNPWGGGSGSGIHWGGGSGRGNGGGNGNSGGGSGTGGNLSAVAAPVAFGFPALSTPGAGGLAVSISASELSAAIAGIIAKLKKVNLKFTPFGVVLSSLIPSEIAKDDPNMMSKIVTSLPADDITESPVSSLPLDKATVNVNVRVVDDVKDERQNISVVSGVPMSVPVVDAKPTERPGVFTASIPGAPVLNISVNDSTPAVQTLSPGVTNNTDKDVRPAGFTQGGNTRDAVIRFPKDSGHNAVYVSVSDVLSPDQVKQRQDEENRRQQEWDATHPVEAAERNYERARAELNQANEDVARNQERQAKAVQVYNSRKSELDAANKTLADAIAEIKQFNRFAHDPMAGGHRMWQMAGLKAQRAQTDVNNKQAAFDAAAKEKSDADAALSAAQERRKQKENKEKDAKDKLDKESKRNKPGKATGKGKPVGDKWLDDAGKDSGAPIPDRIADKLRDKEFKSFDDFRKAVWEEVSKDPELSKNLNPSNKSSVSKGYSPFTPKNQQVGGRKVYELHHDKPISQGGEVYDMDNIRVTTPKRAIDIHRGK
- killing of intracellular LF82 in infected macrophages [1]: no killing

B4: Colicin Ia (protein, listed as Escherichia coli)
chain: MSDPVRITNPGAESLGYDSDGHEIMAVDIYVNPPRVDVFHGTPPAWSSFGNKTIWGGNEWVDDSPTRSDIEKRDKEITAYKNTLSAQQKENENKRTEAGKRLSAAIAAREKDENTLKTLRAGNADAADITRQEFRLLQAELREYGFRTEIAGYDALRLHTESRMLFADADSLRISPREARSLIEQAEKRQKDAQNADKKAADMLAEYERRKGILDTRLSELEKNGGAALAVLDAQQARLLGQQTRNDRAISEARNKLSSVTESLNTARNALTRAEQQLTQQKNTPDGKTIVSPEKFPGRSSTNHSIVVSGDPRFAGTIKITTSAVIDNRANLNYLLSHSGLDYKRNILNDRNPVVTEDVEGDKKIYNAEVAEWDKLRQRLLDARNKITSAESAVNSARNNLSARTNEQKHANDALNALLKEKENIRNQLSGINQKIAEEKRKQDELKATKDAINFTTEFLKSVSEKYGAKAEQLAREMAGQAKGKKIRNVEEALKTYEKYRADINKKINAKDRAAIAAALESVKLSDISSNLNRFSRGLGYAGKFTSLADWITEFGKAVRTENWRPLFVKTETIIAGNAATALVALVFSILTGSALGIIGYGLLMAVTGALIDESLVEKANKFWGI
- ability to kill AIEC in the biofilm state [3]: good killing activity

B5: Colicin E3 (protein, listed as Escherichia coli)
chain: MSGGDGRGHNTGAHSTSGNINGGPTGLGVGGGASDGSGWSSENNPWGGGSGSGIHWGGGSGHGNGGGNGNSGGGSGTGGNLSAVAAPVAFGFPALSTPGAGGLAVSISAGALSAAIADIMAALKGPFKFGLWGVALYGVLPSQIAKDDPNMMSKIVTSLPADDITESPVSSLPLDKATVNVNVRVVDDVKDERQNISVVSGVPMSVPVVDAKPTERPGVFTASIPGAPVLNISVNNSTPAVQTLSPGVTNNTDKDVRPAGFTQGGNTRDAVIRFPKDSGHNAVYVSVSDVLSPDQVKQRQDEENRRQQEWDATHPVEAAERNYERARAELNQANEDVARNQERQAKAVQVYNSRKSELDAANKTLADAIAEIKQFNRFAHDPMAGGHRMWQMAGLKAQRAQTDVNNKQAAFDAAAKEKSDADAALSSAMESRKKKEDKKRSAENNLNDEKNKPRKGFKDYGHDYHPAPKTENIKGLGDLKPGIPKTPKQNGGGKRKRWTGDKGRKIYEWDSQHGELEGYRASDGQHLGSFDPKTGNQLKGPDPKRNIKKYL
- sensitivity of AIEC isolates in spot tests [2]: sensitive
- ability to kill AIEC in the biofilm state [3]: good killing activity

B6: Colicin D (protein, listed as Escherichia coli)
chain: MSDYEGSGPTEGIDYGHSMVVWPSTGLISGGDVKPGGSSGIAPSMPPGWGDYSPQGIALVQSVLFPGIIRRIILDKELEEGDWSGWSVSVHSPWGNEKVSAARTVLENGLRGGLPEPSRPAAVSFARLEPASGNEQKIIRLMVTQQLEQVTDIPASQLPAAGNNVPVKYRLMDLMQNGTQYMAIIGGIPMTVPVVDAVPVPDRSRPGTNIKDVYSAPVSPNLPDLVLSVGQMNTPVLSNPEIQEEGVIAETGNYVEAGYTMSSNNHDVIVRFPEGSDVSPLYISTVEILDSNGLSQRQEAENKAKDDFRVKKEEAVARAEAEKAKAELFSKAGVNQPPVYTQEMMERANSVMNEQGALVLNNTASSVQLAMTGTGVWTAAGDIAGNISKFFSNALEKVTIPEVSPLLMRISLGALWFHSEEAGAGSDIVPGRNLEAMFSLSAQMLAGQGVVIEPGATSVNLPVRGQLINSNGQLALDLLKTGNESIPAAVPVLNAVRDTATGLDKITLPAVVGAPSRTILVNPVPQPSVPTDTGNHQPVPVTPVHTGTEVKSVEMPVTTITPVSDVGGLRDFIYWRPDAAGTGVEAVYVMLNDPLDSGRFSRKQLDKKYKHAGDFGISDTKKNRETLTKFRDAIEEHLSDKDTVEKGTYRREKGSKVYFNPNTMNVVIIKSNGEFLSGWKINPDADNGRIYLETGEL
- sensitivity of AIEC isolates in spot tests [2]: sensitive
- ability to kill AIEC in the biofilm state [3]: good killing activity
